Assay [1] has as its target T1, human TMEM106B (human, UniProt Q9NUM4 2-274).
T1 construct: Full-length, on transiently transfected HEK293 cells, or natively expressed on HeLa, U251 and A549 cells; also called huTMEM106B; huTMEM
As to the kind of experiment: FACS HEK+huTMEM, 1.0 ug/ml.
Procedure: (§1) Purified anti-TMEM106B antibodies were evaluated for their binding affinity to various TMEM106B-expressing cell lines including HEK293 transiently transfected with human/cyno/mouse TMEM106B, as well as HeLa cells and A549 cells. Antibodies tested for this experiment were mouse IgGs purified from hybridoma supernatant. Affinity binding to cells was determined as follows. Briefly, 1x10^5 cells were aliquoted per well in 96-well round bottom plates and incubated with 50 µL of purified anti-TMEM106B antibody at various concentrations (10x dilutions starting at 10 µg/ml) in FACS buffer (PBS + 2% FBS + 1 mM EDTA). […] Sorting was performed on a iQue (Intellicyt), with sort gates drawn to exclude dead (propidium iodide +) cells. Binding data was analyzed using median fluorescent intensity (MFI) and graphed in Prism. Values presented are MFI.

Assay [2] addresses T1, human TMEM106B. Put plainly: FACS A549, 1 ug/ml.
In assay [3] the target is T1, human TMEM106B. As to the kind of experiment: FACS A549, 10 ug/ml.
Procedure: as §1
The target in assay [4] is T1, human TMEM106B. As to the kind of experiment: FACS HEK+huTMEM, 0.1 ug/ml.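 Note: flow cytometry binding of purified mouse IgG antibodies to HEK293 cells transiently expressing TMEM106B, read as median fluorescence intensity with propidium iodide positive dead cells gated out.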
Procedure: as §1
The target of assay [5] is T1, human TMEM106B. Put plainly: FACS, HEK293 transfectants. (Flow cytometry measures light scatter and fluorescence of single cells or particles in a stream.)
The target in assay [6] is T2, cynomolgus (cyno) TMEM106B (cynomolgus, UniProt Q9NUM4 2-274 (human entry)).
T2 construct: on transiently transfected HEK293 cells
As to the kind of experiment: FACS, HEK293 transfectants.

Assay [7] has as its target T1, human TMEM106B. Put plainly: FACS A549.
The target in assay [8] is T1, human TMEM106B. Put plainly: FACS HeLa.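 Note: flow cytometry of cells incubated with hybridoma supernatant or purified antibody at 10 µg/ml for 1 h on ice, propidium iodide–positive dead cells gated out.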
For assay [9], the target named is T1, human TMEM106B. As to the kind of experiment: FACS HEK+huTMEM, 10 ug/ml.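 Note: purified mouse IgG antibodies at 10 µg/ml bound to HEK293 cells transiently expressing human TMEM106B, measured by flow cytometry as median fluorescence intensity of propidium iodide negative live cells.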
Procedure: as §1
Assay [10] addresses T1, human TMEM106B. As to the kind of experiment: FACS HEK+huTMEM, 0.01 ug/ml.
Procedure: as §1
In assay [11] the target is T1, human TMEM106B. As to the kind of experiment: FACS U251.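 Note: flow cytometry of cells exposed to antibody (purified at 10 µg/mL, or hybridoma supernatant) for 1 h on ice, with propidium iodide-positive dead cells gated out.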
Procedure: All cells were cultured in either T75 or T150 flasks. […] The enzyme was quenched by addition of fresh media, and the cells were then distributed into 96-well plates for FACS analysis.
FACS analysis was performed as follows. Each cell type was aliquoted in 96-well round bottom plates (2x10^5 cells per well), washed once with FACS buffer (PBS + 2% FBS + 1 mM EDTA), and incubated with 50 µL of hybridoma supernatant or purified antibody (10 µg/ml in FACS buffer) on ice for 1 hour. […] Following this secondary incubation, the cells were again washed 2x with ice-cold FACS buffer and resuspended in a final volume of 50 µL of FACS buffer + 0.25 µl/well propidium iodide (Fisher Scientific # BDB556463). Analysis was performed on a FACSCanto system (BD Biosciences) or iQue (Intellicyt), with sort gates drawn to exclude dead (i.e., propidium iodide positive) cells.
Data is presented as mean fluorescence intensity (MFI).
Assay [12] deals with T1, human TMEM106B. As to the kind of experiment: FACS, HEK293 transfectants. The source holds these as a separate data set.
Assay [13] deals with T3, GST-fusion human TMEM106B truncated (human).
T3 construct: also called GST-TMEM106B-truncated protein; GST-TMEM106B (truncated)
As to the kind of experiment: ELISA, supernatant 100-1000x.
Procedure: (§2) Briefly, 96-well polystyrene plates were coated with 1-10 µg/ml of recombinant GST-TMEM106B-truncated protein or GST (Pierce) in PBS either at 370 Cfor 1-4 hours or overnight at 4 °C. Coated plates were then blocked with 5% BSA for 1-hour, washed 3×150 µL in TBST (Tris-buffered saline + 0.1% Tween20), and then the antibodies were added at various dilutions (100-1000x) in PBS. After 1-hour incubation (room temperature, with shaking), the plates were washed 3x150 µL in TBST. […] After a final set of washes (3×150µL in TBST), 100 µL of peroxidase substrate was added for 1 minute; the reaction was then quenched with 2N sulfuric acid (100 µL).

Another assay has as its target T4, GST (Pierce) (UniProt P08515 1-218 = GST, limits assumed).
T4 construct: control for the GST part of the fusion protein; also called GST protein; Glutathione-S-transferase
As to the kind of experiment: ELISA, coated GST.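 Note: ELISA on plates coated with GST alone at 1-10 µg/ml, antibodies applied at 100-1000x dilution, bound antibody detected by peroxidase substrate colour after acid stop.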 On the technique in general: In an ELISA, binding on a coated surface is turned into a signal by an enzyme label.

This note sets out measurements from patent US20230303681A1 (published 2023).
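Throughout, for fold over negative controls: hybridoma supernatants incubated 30 min on ice with human TMEM106B-expressing HEK293 cells, binding read as anti-mouse-APC median fluorescence on live cells, relative to secondary-antibody-only wells.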
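Throughout, for fold-change over parental HEK293: flow cytometry binding of hybridoma supernatants to HEK293 cells transiently expressing human, cyno or mouse TMEM106B, read as anti-mouse-APC median fluorescence, live cells only, 30 min on ice.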

Procedure for GST (Pierce): as §2

B1: anti-TMEM106B antibody TM-4 (antibody, V domains shown)
VH: EVQVQQSGPVLVKPGASVKMSCKASGYTFTDYYMNWVKQSHGKNLEWIGVINPYNGGTSYHQKFKGKATLTVDKSSSTAYMELNSLTSEDSAVYYCARAATVVAGFDYWGQGTTLTVSS
VL: QAVVTQESALTTSPGETVTLTCRSSTGAVTTSNYANWVQEKPDHLFTGLIGGTNNRAPGVPARFSGSLIGDKAALTITGAQTEDEAIYFCVLWYSNHLVFGGGTKLTVL
On to B1, for which the MFI in the assay with human TMEM106B [1] stood at 415; with human TMEM106B [2], 373; with human TMEM106B [3] it was 443; in the assay with human TMEM106B [4] it was 304; in the assay with human TMEM106B [7] it was 916; with human TMEM106B [8], 323. In addition, the results for the MFI with human TMEM106B [9], with human TMEM106B [10] and in the assay with human TMEM106B [11] were 846, 282 and 349, respectively. The “fold-change over parental HEK293” value in the assay with human TMEM106B [5] was found to be 1.13 fold; in assay [6], 2.08 fold. In addition, the “fold over negative controls” value in the assay with human TMEM106B [12] was greater than 2 fold. For the same molecule, the binding result (in assay [13]; in the assay with GST (Pierce)) was “no binding” each time.
